Test results from PMC10823254 (Proceedings of the National Academy of Sciences of the …, 2024).

Molecular target: T1, PilO-C (H. pylori)
T1 chain: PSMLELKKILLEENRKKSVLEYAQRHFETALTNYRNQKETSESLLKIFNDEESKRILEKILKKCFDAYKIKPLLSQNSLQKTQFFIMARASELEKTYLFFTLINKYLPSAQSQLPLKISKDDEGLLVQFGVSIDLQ
Assay: SPR

B1: PilN-C (domain or fragment)
chain: HNAIKSTQDNASSLTIQERLYRHEISRLQVKTDETLKLIKEAKKRLNYNDDIRDVLQGLLNIVPDSITINSIEIDQQSVVVSGKTPSKEAFYFLFQNKLNPMFDYSRAEFFPLSDGWFNFVSTNFSNSLLIKNPESIK
- Kd: 3.1 ± 1 µM
